How the values were obtained:
Conditions in all cases: both partners purified
GST-CagA-2CM^W = GST-CagA-2CM^W (Helicobacter pylori strain 26695, UniProt P55980 1-1186); assay: pull-down; quantitative GST pull-down: GST-CagA on beads in a range of concentrations, fixed low concentration of PAR1b (39–364)-FLAG, GST-binding buffer with 0.01% Triton-X, 20 min at 4 °C, unbound PAR1b in the supernatant quantified, binding to GST control subtracted; apparent KD
GST-CagA-4CM^W = GST-CagA-4CM^W (Helicobacter pylori strain NCTC11637); assay: as above
CagA-2CM^W = biological target: T1, CagA-2CM^W (Helicobacter pylori strain 26695, UniProt P55980 1-1186); assay: SEC; Superdex 200 10/300 GL, HBS-P running buffer, 4 °C, 0.5 ml/min; CagA constructs alone or mixed with PAR1b (39–364) at a molar ratio of 1:1 or 1:2; fractions on SDS-PAGE, CBB bands quantified
T1 construct: also called canonical Western ABC type CagA
T1 sequence (looked up): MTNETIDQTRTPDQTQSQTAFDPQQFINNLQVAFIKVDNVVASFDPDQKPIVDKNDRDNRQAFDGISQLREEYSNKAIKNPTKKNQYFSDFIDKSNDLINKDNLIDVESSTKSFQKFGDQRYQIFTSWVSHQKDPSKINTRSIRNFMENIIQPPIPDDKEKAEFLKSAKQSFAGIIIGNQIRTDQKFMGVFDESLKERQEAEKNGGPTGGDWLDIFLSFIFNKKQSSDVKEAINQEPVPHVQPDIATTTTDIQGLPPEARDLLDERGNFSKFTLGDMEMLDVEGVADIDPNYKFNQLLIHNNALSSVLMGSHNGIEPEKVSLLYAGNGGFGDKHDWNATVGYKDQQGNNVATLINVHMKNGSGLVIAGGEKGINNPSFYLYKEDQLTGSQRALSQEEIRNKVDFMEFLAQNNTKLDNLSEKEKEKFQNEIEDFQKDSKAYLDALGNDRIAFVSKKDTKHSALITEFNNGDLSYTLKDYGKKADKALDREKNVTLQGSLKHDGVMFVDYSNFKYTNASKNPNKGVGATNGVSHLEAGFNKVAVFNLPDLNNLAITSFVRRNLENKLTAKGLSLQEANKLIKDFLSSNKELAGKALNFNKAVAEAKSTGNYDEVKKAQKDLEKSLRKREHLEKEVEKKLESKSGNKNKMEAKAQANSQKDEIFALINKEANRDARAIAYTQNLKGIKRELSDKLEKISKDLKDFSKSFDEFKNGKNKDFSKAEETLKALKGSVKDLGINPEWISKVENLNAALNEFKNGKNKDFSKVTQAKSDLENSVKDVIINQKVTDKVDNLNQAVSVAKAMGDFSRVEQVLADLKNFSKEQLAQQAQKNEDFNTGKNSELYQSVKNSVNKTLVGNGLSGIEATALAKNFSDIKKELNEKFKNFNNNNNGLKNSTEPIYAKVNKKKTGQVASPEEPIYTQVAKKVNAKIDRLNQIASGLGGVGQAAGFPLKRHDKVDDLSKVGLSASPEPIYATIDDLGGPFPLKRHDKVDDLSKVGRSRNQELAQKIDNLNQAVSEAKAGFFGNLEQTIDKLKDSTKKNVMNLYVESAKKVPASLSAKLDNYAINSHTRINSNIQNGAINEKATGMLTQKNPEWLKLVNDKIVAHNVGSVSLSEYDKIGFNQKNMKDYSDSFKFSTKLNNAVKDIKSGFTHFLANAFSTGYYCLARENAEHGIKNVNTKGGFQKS

B1: PAR1b (39–364)-FLAG (domain or fragment)
chain: not shown
modifications: C-terminal FLAG-6xHis tag left out
- Kd (GST-CagA-2CM^W): 26.6 nM

B2: PAR1b (39–364)-FLAG (domain or fragment)
chain: not shown
- Kd (GST-CagA-4CM^W): 2.43 nM

B3: PAR1b (39–364) (domain or fragment)
chain: not shown
modifications: C-terminal 6xHis tag left out
- stoichiometry N (CagA-2CM^W): 2 PAR1b per CagA

Source: article PMC4957108, “Impact of structural polymorphism for the Helicobacter pylori CagA oncoprotein on binding to polarity-regulating kinase PAR1b” (Scientific Reports, 2016)
